Laboratory results from patent US20260242492A1 (JOINT STOCK COMPANY BIOCAD, published 2026).

Key:
[1] = biological target: T1, extracellular domain of the human CSF1R protein (hCSF1R_His) (human, UniProt P07333 20-512); assay: BLI (Octet RED 384), antibody-like molecule on ProA sensors, hCSF1R_His analyte 174.2 nM, 1:1 model
T1 construct: range 20-512; Made in CHO cells, molecular weight 57.4 kDa as printed; not shown: C-terminal His-tag and FLAG-tag
Method: (§1) Experiments were carried out using a kinetic buffer solution (hereinafter referred to as 1×KB); volume fraction of added Tween 20 was 0.1%; mass fraction of added BSA (bovine serum albumin) was 0.1%; pH 7.4. Before the measurement, the ProA sensors were regenerated with a solution of 50 mM glycine and hydrochloric acid, pH 1.8 (5 seconds in the regenerating solution, 5 seconds in 1×KB, three repetitions).
In the case of the hPDlex-H6F and hCSF1R_His antigens, the Protein A (ProA) biosensors (ForteBio) were immersed in a solution with antibody-like molecules at a concentration of 10 µg/ml for 300 seconds to immobilize same. The baseline was recorded in 1×KB for 120 seconds. Sensors loaded with the antibody-like molecule were then immersed into wells containing a solution of the target antigen (analyte) in a kinetic buffer for 300 seconds. Measurements were performed for solutions with hPDlex-H6F analyte at concentrations of 10 µg/ml (485.4 nM), for solutions with hCSF1R_His analyte at concentrations of 10 µg/ml (174.2 nM). Complex dissociation in 1×KB was then detected for 600 seconds.
(§2) To obtain numerical values of kinetic constants (kon is the on/association rate constant, kdis is the dissociation rate constant, KD is the equilibrium dissociation constant or affinity constant), the resulting sensograms were processed according to the 1:1 interaction model using Global Fit (selection of one set of kon, kdis, KD constants to analyze several sensograms of different concentrations) of the ForteBio Octet Data Analysis 9.0 software.

[2] = biological target: T2, biotinylated peptide [NH2]CEPANPSEKNSPSTQYCYSIQS[CH2CH2]biotin comprising a fragment of the human CD20 … (human, [NH2] at the N-terminus; [CH2CH2]biotin at the C-terminus (so in the source)); assay: BLI (Octet RED 384), biotinylated CD20 peptide on SAX sensors, antibody-like molecule as analyte, 1:1 model, global fit
T2 construct: Immobilized on streptavidin (SAX) sensors; also called CD20 peptide
T2 peptide: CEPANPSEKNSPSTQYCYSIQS
Method: as §1
In the case of biotinylated […], the peptide at a concentration of 2.5 μg/ml was immobilized on the surface of SAX sensors (High Precision Streptavidin (SAX) biosensors, ForteBio) for 300 seconds. The baseline was recorded in a 1×KB solution for 120 seconds. Sensors loaded with peptide were then immersed into wells containing the solution of antibody-like molecule (analyte) in 1×KB for 300 seconds. Measurements were performed for solutions with analyte (antibody-like molecule in case of CD20 peptide) at concentrations […] and 75 µg/ml. Complex dissociation was recorded in 1×KB for 60 seconds.
as §2

T1 sequence (P07333 20-512 limits assumed): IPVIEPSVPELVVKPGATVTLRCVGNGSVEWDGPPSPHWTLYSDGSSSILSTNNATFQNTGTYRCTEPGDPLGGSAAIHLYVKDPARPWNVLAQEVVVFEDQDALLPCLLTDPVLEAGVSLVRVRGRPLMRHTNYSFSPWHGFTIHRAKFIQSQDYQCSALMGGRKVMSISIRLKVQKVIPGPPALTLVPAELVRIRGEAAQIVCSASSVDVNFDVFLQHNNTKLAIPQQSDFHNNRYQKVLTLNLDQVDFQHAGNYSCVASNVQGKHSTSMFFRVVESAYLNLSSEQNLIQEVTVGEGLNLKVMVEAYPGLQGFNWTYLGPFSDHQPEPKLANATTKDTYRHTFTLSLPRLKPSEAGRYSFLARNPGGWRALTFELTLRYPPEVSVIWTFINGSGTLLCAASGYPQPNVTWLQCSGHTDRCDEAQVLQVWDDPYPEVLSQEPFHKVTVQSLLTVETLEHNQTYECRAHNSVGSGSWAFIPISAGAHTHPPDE

B1: antibody-like molecule 08-006 (binds CSF1R and CD20) (bispecific antibody, human IgG1, kappa, L234A L235A)
heavy 1: QVQLVESGGGLVRPGGSLRLSCAASEFTFDDYAMSWVRQAPGKGLEWVSAISWNGGSTNYADSVKGRFTISRDNAKNSLYLQMNSLRAEDTALYYCASTVEVAHRRLYKYLEVWGQGTLVTVSSASTKGPSVFPLAPSSKSTSGGTAALGCLVKDYFPEPVTVSWNSGALTSGVHTFPAVLQSSGLYSLSSVVTVPSSSLGTQTYICNVNHKPSNTKVDKRVEPKSCDKTHTCPPCPAPEAAGGPSVFLFPPKPKDTLYITREPEVTCVVVDVSHEDPEVKFNWYVDGVEVHNAKTKPREEQYNSTYRVVSVLTVLHQDWLNGKEYKCKVSNKALPAPIEKTISKAKGQPREPQVCTLPPSRDELTKNQVSLSCAVKGFYPSDIAVEWESNGQPENNYKTTPPVLDSDGSFFLVSKLTVDKSRWQQGNVFSCSVMHEALHNHYTQKSLSLSPGK
light 1: QAGLTQPPSVSVAPGQTARITCGGNNIGSKSVHWYQQKPGQAPVLVVYGDSDRPSGIPERFSGSNSGNTATLTISRVEAGDEADYYCQVWDISSDHVVFGGGTQLTVLRTVAAPSVFIFPPSDEQLKSGTASVVCLLNNFYPREAKVQWKVDNALQSGNSQESVTEQDSKDSTYSLSSTLTLSKADYEKHKVYACEVTHQGLSSPVTKSFNRGEC
heavy 2: not shown
light 2: DIQMTQSPSSLSASVGDRVTITCRASSSVSYMHWYQQKPGKAPKPLIYAPSNLASGVPSRFSGSGSGTDFTLTISSLQPEDFATYYCQQWSFNPPTFGQGTKVEIKQRQVKPEAWLSKGPSPGPGRLQLVCHVSGFYPKPVWVMWMRGEQEQQGTQLGDILPNADWTWYLRATLDVADGEAAGLSCRVKHSSLEGQDIILYWRGSC
notes: Four distinct chains: anti-CSF1R Fab arm (hole) and Ocrelizumab Fab-like arm with b2m/CD1b alpha3 dimerization unit (knob)
Binder B1 has a Kd [1] of 0.00192 µM, a koff [1] of 0.000372 s⁻¹ and a kon [1] of 194000 M⁻¹ s⁻¹. For the same binder, the Kd [2] was 2.6 µM, the koff [2] was 0.418 s⁻¹ and the kon [2] was 161000 M⁻¹ s⁻¹.
